The term Kd denotes the free concentration of one partner at which half of the binding sites on the other are occupied at equilibrium, for simple one-to-one binding.

This series deals with T1, DHX36 (RHAU) (UniProt Q9H2U1 1-1008).
T1 sequence: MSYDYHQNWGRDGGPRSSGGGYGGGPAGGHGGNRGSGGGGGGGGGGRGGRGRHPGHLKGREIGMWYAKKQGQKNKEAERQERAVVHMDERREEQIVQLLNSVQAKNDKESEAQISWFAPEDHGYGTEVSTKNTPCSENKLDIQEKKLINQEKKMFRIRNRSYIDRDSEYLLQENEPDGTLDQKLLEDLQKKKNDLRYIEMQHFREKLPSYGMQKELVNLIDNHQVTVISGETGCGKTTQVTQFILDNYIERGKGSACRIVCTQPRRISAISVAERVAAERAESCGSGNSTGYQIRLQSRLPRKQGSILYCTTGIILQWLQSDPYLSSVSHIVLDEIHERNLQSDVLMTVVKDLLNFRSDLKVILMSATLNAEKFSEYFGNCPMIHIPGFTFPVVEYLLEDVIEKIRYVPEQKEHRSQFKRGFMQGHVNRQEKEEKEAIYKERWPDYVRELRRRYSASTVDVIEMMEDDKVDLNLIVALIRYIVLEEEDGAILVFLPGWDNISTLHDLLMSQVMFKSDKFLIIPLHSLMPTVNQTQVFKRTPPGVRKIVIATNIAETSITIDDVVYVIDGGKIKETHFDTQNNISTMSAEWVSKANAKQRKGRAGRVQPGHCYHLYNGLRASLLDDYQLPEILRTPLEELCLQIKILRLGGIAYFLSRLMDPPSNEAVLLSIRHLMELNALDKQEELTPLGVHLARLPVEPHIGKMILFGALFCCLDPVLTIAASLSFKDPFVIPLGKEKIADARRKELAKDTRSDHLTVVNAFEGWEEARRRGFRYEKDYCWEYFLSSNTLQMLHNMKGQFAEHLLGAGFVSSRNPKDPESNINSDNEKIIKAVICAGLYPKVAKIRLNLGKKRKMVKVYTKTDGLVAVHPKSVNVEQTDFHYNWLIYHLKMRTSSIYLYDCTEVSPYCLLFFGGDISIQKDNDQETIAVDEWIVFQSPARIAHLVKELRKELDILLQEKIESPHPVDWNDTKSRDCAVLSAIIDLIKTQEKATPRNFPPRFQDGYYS
Description: MST; EMSA and MST: 25 mM Tris-HCl pH 7.5, 150 mM KCl, 1 mM MgCl2, 37 C 30 min; 30 nM (EMSA) or 40 nM (MST) FAM-oligo; EMSA gel 10% native PAGE, 0.5x TBE, 4 C. Particulars: protein: recombinant; for Kd: G4. (In general: Mobility shift assays separate free from complexed probe on a gel.)

Turning to CGGGGCGGGUGGGGAGGGGU (structured_RNA, printed with T although called rG4) [FAM_APP rG4 WT], the equilibrium dissociation constant (Kd) (label: 5'-FAM) came out at 19.7 ± 2.3 nM.

With TTGGGTGGGTGGGTGGGT (structured_DNA, 5'-hexynyl clicked to AHPC-PEG2) [FAM_dG4_A (T95-2T)], the Kd (label: 3'-FAM) was 303 ± 55 nM.

Consider GGGCCGGCGGUGGGAGCGGAGUGGGUCGGGCGGGG (structured_RNA) [FAM_Gnai2 rG4 WT], for which, where the note is “label: 5'-FAM”, the Kd turned out to be 37.9 ± 3.6 nM.

As to GGGUUGCGGAGGGUGGGCCU (structured_RNA, 5'-hexynyl clicked to AHPC-PEG2 (VHL ligand)) [FAM_rG4_A_PEG2 (FAM_rG4_A)], the dissociation constant (Kd) (label: 3'-FAM) was determined as 79.7 ± 17.3 nM.

Regarding GAGCCGGCGGUGAGAGCGGAGUGAGUCGAACGAAG (ssRNA) [FAM_Gnai2 rG4 Mut], under “label: 5'-FAM, non-G4”, the binding result is on record as “no binding”.

For the origin of these results see PMC11780864, “RNA G-quadruplex structure-based PROTACs for targeted DHX36 protein degradation and gene activity modulation in mammalian cells”.
